The text below walks through data of PMC6929975, “A supramolecular protein chaperone for vaccine delivery” (Theranostics, 2020).

Broadly, the Kd is the constant that tells how readily two partners part at equilibrium. Low readings indicate higher affinity, high ones lower affinity.

Starred links: 1 amine or outer side, 2 acyl side, 3 side chain; linkers in the order of their positions; H or OH if unused. Non-standard residues stand in square brackets, D forms with d. Groups on a side chain read outwards from the residue. *: point of attachment. Fbp = flurbiprofen, CC(C(=O)*)c1ccc(-c2ccccc2)c(F)c1; γGlu = O=C(O)[C@H](CCC(=O)[*:2])N[*:1]

Test [1] has as its target Hepatitis B surface antigen (hepatitis B virus, UniProt P03138 1-389, fluorescent dye NT-647 (cysteine-reactive Monolith NT Protein Labelling Kit)). The experiment in a line: MST; proteins labelled with NT-647 held at constant concentration; Comp. 1 or 2 varied from 0.25 μM to 10 mM; PBS with 0.05% Tween-20, pH 7.4; Monolith NT.115, standard glass capillaries. The following applies: both partners purified.

In test [2] the target is T1, ovalbumin (UniProt P01012 1-386, fluorescent dye NT-647 (cysteine-reactive Monolith NT Protein Labelling Kit)).
T1 construct: source: bought: InvivoGen (endotoxin free)
T1 sequence (looked up): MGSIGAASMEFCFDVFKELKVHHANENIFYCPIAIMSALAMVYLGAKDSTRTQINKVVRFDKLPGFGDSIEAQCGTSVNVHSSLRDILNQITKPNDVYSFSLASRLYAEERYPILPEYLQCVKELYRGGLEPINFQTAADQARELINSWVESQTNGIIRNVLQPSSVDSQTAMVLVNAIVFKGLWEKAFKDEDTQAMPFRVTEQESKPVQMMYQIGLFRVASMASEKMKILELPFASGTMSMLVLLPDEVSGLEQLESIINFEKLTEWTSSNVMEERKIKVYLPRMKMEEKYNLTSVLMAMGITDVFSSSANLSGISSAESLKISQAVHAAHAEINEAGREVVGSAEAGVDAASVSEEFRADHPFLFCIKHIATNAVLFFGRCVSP
The description is as above. As to conditions: both partners purified.

B1: Fbp-G^DF^DF^DY^DK(γE)2-NH2 (peptide)
peptide: Fbp-G[dF][dF][dY][dK]([γGlu-γGlu])-NH2
SMILES: CC(C(=O)NCC(=O)N[C@H](Cc1ccccc1)C(=O)N[C@H](Cc1ccccc1)C(=O)N[C@H](Cc1ccc(O)cc1)C(=O)N[C@H](CCCCNC(=O)CC[C@H](NC(=O)CC[C@H](N)C(=O)O)C(=O)O)C(N)=O)c1ccc(-c2ccccc2)c(F)c1
notes: also called Comp; supramolecular protein chaperone; source: synthetic peptide (Fmoc SPPS on Rink resin, purified by HPLC)
On to B1, for which the Kd in test [1] was 68 µM; in test [2] it was 83.3 µM.
